Columns and labels:
Experiment in all cases: fluorescence, 4-mU release
Assay type in all cases: biochemical, Moraxella sp. TA144
Conditions in all cases: 0.1 M phosphate pH 7, 30 °C, 5% DMSO
[1] = system: COC(=O)c1ccc(C(=O)Oc2ccc3c(C)cc(=O)oc3c2)cc1
Excerpt: (§1) fluorescence, 4-mU release on MoPE (polyesterase)

[2] = system: CCOCCOC(=O)c1ccc(C(=O)Oc2ccc3c(C)cc(=O)oc3c2)cc1
Excerpt: as §1

[3] = system: COC(=O)c1ccc(C(=O)OCCOC(=O)c2ccc(C(=O)Oc3ccc4c(C)cc(=O)oc4c3)cc2)cc1
Excerpt: as §1

Substance: MoPE (polyesterase) (Moraxella sp. TA144)
- Km [1]: 1.9 ± 0.1 µM
- kcat [1]: 3e-05 ± 1e-06 s⁻¹
- Km [2]: 15.6 ± 1.5 µM
- kcat [2]: 0.00014 ± 1e-06 s⁻¹
- Km [3]: 17.4 ± 2.1 µM

Reference: PMC11187625, “New Labeled PET Analogues Enable the Functional Screening and Characterization of PET-Degrading Enzymes” (ACS Sustainable Chemistry & Engineering, 2024)
